Series [1] relates to HeLa Kyoto. As to the kind of experiment: melting temperature (median over replicates), in situ; higher = more thermally stable.
The subject of series [2] is HeLa Kyoto. As to the kind of experiment: solubility change mitosis vs G1/S (difference of NP-40 vs SDS log2 ratios) (log2 ratio difference); higher = more soluble in mitosis.
Series [3] relates to HeLa Kyoto. Description: thermal stability score vs G1/S (z-score of summed log2 fold changes over temperatures); higher = more thermally stable than in G1/S.
Series [4] has as its system HeLa Kyoto. Description: solubility in G1/S (NP-40 vs SDS abundance) (log2 ratio); higher = more soluble. As to conditions: cell cycle stage: G1/S.
[5] abbreviates: cell cycle stage: early G1 (4.5 h after nocodazole release).
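Throughout, for melting temperature (median over replicates), in situ: HeLa Kyoto cells synchronized by double thymidine or nocodazole block, proteins quantified by TMT10plex mass spectrometry, three independent biological replicates.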
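Throughout, for solubility change mitosis vs G1/S (difference of NP-40 vs SDS log2 ratios): synchronized HeLa Kyoto cells (double thymidine block for G1/S, nocodazole release for mitosis), protein amounts in NP-40 versus SDS lysates quantified by mass spectrometry, three biological replicates.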
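Throughout, for solubility in G1/S (NP-40 vs SDS abundance): HeLa Kyoto cells arrested at G1/S by double thymidine block, proteins quantified by TMT10plex mass spectrometry in mild NP-40 versus SDS extracts, three biological replicates.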
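Throughout, for thermal stability score vs G1/S (z-score of summed log2 fold changes over temperatures): synchronized HeLa Kyoto cells, proteins quantified by TMT10plex mass spectrometry, three biological replicates, mitosis taken 0.5 h after nocodazole release, G1/S directly after double thymidine block.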

In the case of “MFWKFDLHSSSHIDTLLEREDVTLKELMDEEDVLQECKAQNRKLIEFLLKAECLEDLVSFIIEEPPQDMDEKIRYKYPNISCELLTSDVSQMNDRLGEDESLLMKLYSFLLNDSPLNPLLASFFSKVLSILISRKPEQIVDFLKKKHDFVDLIIKHIGTSAIMDLLLRLLTCIEPPQPRQDVLNWLNEEKIIQRLVEIVHPSQEEDRHSNASQSLCEIVRLSRDQMLQIQNSTEPDPLLATLEKQEIIEQLLSNIFHKEKNESAIVSAIQILLTLLETRRPTFEGHIEICPPGMSHSACSVNKSVLEAIRGRLGSFHELLLEPPKKSVMKTTWGVLDPPVGNTRLNVIRLISSLLQTNTSSINGDLMELNSIGVILNMFFKYTWNNFLHTQVEICIALILASPFENTENATITDQDSTGDNLLLKHLFQKCQLIERILEAWEMNEKKQAEGGRRHGYMGHLTRIANCIVHSTDKGPNSALVQQLIKDLPDEVRERWETFCTSSLGETNKRNTVDLVTTCHIHSSSDDEIDFKETGFSQDSSLQQAFSDYQMQQMTSNFIDQFGFNDEKFADQDDIGNVSFDRVSDINFTLNTNESGNIALFEACCKERIQQFDDGGSDEEDIWEEKHIAFTPESQRRSSSGSTDSEESTDSEEEDGAKQDLFEPSSANTEDKMEVDLSEPPNWSANFDVPMETTHGAPLDSVGSDVWSTEEPMPTKETGWASFSEFTSSLSTKDSLRSNSPVEMETSTEPMDPLTPSAAALAVQPEAAGSVAMEASSDGEEDAESTDKVTETVMNGGMKETLSLTVDAKTETAVFKSEEGKLSTSQDAACKDAEECPETAEAKCAAPRPPSSSPEQRTGQPSAPGDTSVNGPV [PPP6R3]”, the results for the melting temperature in the series with HeLa Kyoto [1] (cell cycle stage: G1/S) and in the series with HeLa Kyoto [1] (cell cycle stage: mitosis) were 54.9 °C and 54.1 °C, respectively. In the series on HeLa Kyoto [2], the “solubility change mitosis (log2)” value was -0.12. The thermal stability score was -1.86 with HeLa Kyoto [3] (setting [5]) and -1.84 in the series with HeLa Kyoto [3] (cell cycle stage: mitosis). For the same sequence, the “solubility in G1/S (log2)” value with HeLa Kyoto [4] was -0.236.
Consider “MFWKFDLNTTSHVDKLLDKEHVTLQELMDEDDILQECKAQNQKLLDFLCRQQCMEELVSLITQDPPLDMEEKVRFKYPNTACELLTCDVPQISDRLGGDESLLSLLYDFLDHEPPLNPLLASFFSKTIGNLIARKTEQVITFLKKKDKFISLVLKHIGTSALMDLLLRLVSCVEPAGLRQDVLHWLNEEKVIQRLVELIHPSQDEDRQSNASQTLCDIVRLGRDQGSQLQEALEPDPLLTALESQDCVEQLLKNMFDGDRTESCLVSGTQVLLTLLETRRVGTEGLVDSFSQGLERSYAVSSSVLHGIEPRLKDFHQLLLNPPKKKAILTTIGVLEEPLGNARLHGARLMAALLHTNTPSINQELCRLNTMDLLLDLFFKYTWNNFLHFQVELCIAAILSHAAREERTEASGSESRVEPPHENGNRSLETPQPAASLPDNTMVTHLFQKCCLVQRILEAWEANDHTQAAGGMRRGNMGHLTRIANAVVQNLERGPVQTHISEVIRGLPADCRGRWESFVEETLTETNRRNTVDLVSTHHLHSSSEDEDIEGAFPNELSLQQAFSDYQIQQMTANFVDQFGFNDEEFADQDDNINAPFDRIAEINFNIDADEDSPSAALFEACCSDRIQPFDDDEDEDIWEDSDTRCAARVMARPRFGAPHASESCSKNGPERGGQDGKASLEAHRDAPGAGAPPAPGKKEAPPVEGDSEGAMWTAVFDEPANSTPTAPGVVRDVGSSVWAAGTSAPEEKGWAKFTDFQPFCCSESGPRCSSPVDTECSHAEGSRSQGPEKASQASYFAVSPASPCAWNVCVTRKAPLLASDSSSSGGSHSEDGDQKAASAMDAVSRGPGREAPPLPTVARTEEAVGRVGCADSRLLSPACPAPKEVTAAPAVAVPPEATVAITTALSKAGPAIPTPAVSSALAVAVPLGPIMAVTAAPAMVATLGTVTKDGKTDAPPEGAALNGPV [PPP6R2]”, for which the melting temperature came out at 54.5 °C with HeLa Kyoto [1] (cell cycle stage: G1/S) and 52.8 °C with HeLa Kyoto [1] (cell cycle stage: mitosis). In addition, in the series with HeLa Kyoto [2], the “solubility change mitosis (log2)” value is -0.119. Besides, the thermal stability score is -0.206 in the series with HeLa Kyoto [3] (setting [5]) and -1.5 in the series with HeLa Kyoto [3] (cell cycle stage: mitosis). In addition, the “solubility in G1/S (log2)” value in the series on HeLa Kyoto [4] turned out to be 0.0656.
For “MGALVIRGIRNFNLENRAEREISKMKPSVAPRHPSTNSLLREQISLYPEVKGEIARKDEKLLSFLKDVYVDSKDPVSSLQVKAAETCQEPKEFRLPKDHHFDMINIKSIPKGKISIVEALTLLNNHKLFPETWTAEKIMQEYQLEQKDVNSLLKYFVTFEVEIFPPEDKKAIRSK [NDUFAF4]”, the melting temperature was determined as 50.4 °C in the series with HeLa Kyoto [1] (cell cycle stage: G1/S) and 54.2 °C with HeLa Kyoto [1] (cell cycle stage: mitosis). The “solubility change mitosis (log2)” value in the series with HeLa Kyoto [2] was -0.0449. Besides, the thermal stability score with HeLa Kyoto [3] (setting [5]) is -2.2; in the series with HeLa Kyoto [3] (cell cycle stage: mitosis), -2.98. For the same sequence, in the series on HeLa Kyoto [4], the “solubility in G1/S (log2)” value was found to be 0.314.
For the sequence “MGAQLSTLGHMVLFPVWFLYSLLMKLFQRSTPAITLESPDIKYPLRLIDREIISHDTRRFRFALPSPQHILGLPVGQHIYLSARIDGNLVVRPYTPISSDDDKGFVDLVIKVYFKDTHPKFPAGGKMSQYLESMQIGDTIEFRGPSGLLVYQGKGKFAIRPDKKSNPIIRTVKSVGMIAGGTGITPMLQVIRAIMKDPDDHTVCHLLFANQTEKDILLRPELEELRNKHSARFKLWYTLDRAPEAWDYGQGFVNEEMIRDHLPPPEEEPLVLMCGPPPMIQYACLPNLDHVGHPTERCFVF [CYB5R3]”, the figures for the melting temperature in the series with HeLa Kyoto [1] (cell cycle stage: G1/S) and in the series on HeLa Kyoto [1] (cell cycle stage: mitosis) were 56 °C and 55.8 °C, respectively. Besides, in the series on HeLa Kyoto [2], the “solubility change mitosis (log2)” value was -0.158. Also, the figures for the thermal stability score with HeLa Kyoto [3] (setting [5]) and in the series on HeLa Kyoto [3] (cell cycle stage: mitosis) were -1.92 and -2.76, respectively. Moreover, the “solubility in G1/S (log2)” value in the series on HeLa Kyoto [4] was -0.215.
Take “MGASARLLRAVIMGAPGSGKGTVSSRITTHFELKHLSSGDLLRDNMLRGTEIGVLAKAFIDQGKLIPDDVMTRLALHELKNLTQYSWLLDGFPRTLPQAEALDRAYQIDTVINLNVPFEVIKQRLTARWIHPASGRVYNIEFNPPKTVGIDDLTGEPLIQREDDKPETVIKRLKAYEDQTKPVLEYYQKKGVLETFSGTETNKIWPYVYAFLQTKVPQRSQKASVTP [AK3]”: the melting temperature in the series with HeLa Kyoto [1] (cell cycle stage: G1/S) was 54.3 °C; in the series on HeLa Kyoto [1] (cell cycle stage: mitosis), 54.2 °C. Besides, the “solubility change mitosis (log2)” value in the series with HeLa Kyoto [2] was determined as 0.00633. Moreover, the values for the thermal stability score in the series on HeLa Kyoto [3] (setting [5]) and with HeLa Kyoto [3] (cell cycle stage: mitosis) were -1.02 and -2.48, respectively. The “solubility in G1/S (log2)” value in the series on HeLa Kyoto [4] was 0.43.
Take “MGAVWSALLVGGGLAGALFVWLLRGGPGDTGKDGDAEQEKDAPLGGAAIPGGHQSGSSGLSPGPSGQELVTKPEHLQESNGHLISKTKDLGKLQAASWRLQNPSREVCDNSREHVPSGQFPDTEAPATSETSNSRSYSEVSRNESLESPMGEWGFQKGQEISAKAATCFAEKLPSSNLLKNRAKEEMSLSDLNSQDRVDHEEWEMVPRHSSWGDVGVGGSLKAPVLNLNQGMDNGRSTLVEARGQQVHGKMERVAVMPAGSQQVSVRFQVHYVTSTDVQFIAVTGDHECLGRWNTYIPLHYNKDGFWSHSIFLPADTVVEWKFVLVENGGVTRWEECSNRFLETGHEDKVVHAWWGIH [STBD1]”: the results for the melting temperature with HeLa Kyoto [1] (cell cycle stage: G1/S) and in the series on HeLa Kyoto [1] (cell cycle stage: mitosis) were 50.7 °C and 50.3 °C, respectively. Also, the “solubility change mitosis (log2)” value in the series on HeLa Kyoto [2] is -0.0441. Also, the thermal stability score in the series with HeLa Kyoto [3] (setting [5]) was 0.314; in the series with HeLa Kyoto [3] (cell cycle stage: mitosis), -0.125. Moreover, the “solubility in G1/S (log2)” value in the series on HeLa Kyoto [4] was -0.336.
“MGCCSSASSAAQSSKREWKPLEDRSCTDIPWLLLFILFCIGMGFICGFSIATGAAARLVSGYDSYGNICGQKNTKLEAIPNSGMDHTQRKYVFFLDPCNLDLINRKIKSVALCVAACPRQELKTLSDVQKFAEINGSALCSYNLKPSEYTTSPKSSVLCPKLPVPASAPIPFFHRCAPVNISCYAKFAEALITFVSDNSVLHRLISGVMTSKEIILGLCLLSLVLSMILMVIIRYISRVLVWILTILVILGSLGGTGVLWWLYAKQRRSPKETVTPEQLQIAEDNLRALLIYAISATVFTVILFLIMLVMRKRVALTIALFHVAGKVFIHLPLLVFQPFWTFFALVLFWVYWIMTLLFLGTTGSPVQNEQGFVEFKISGPLQYMWWYHVVGLIWISEFILACQQMTVAGAVVTYYFTRDKRNLPFTPILASVNRLIRYHLGTVAKGSFIITLVKIPRMILMYIHSQLKGKENACARCVLKSCICCLWCLEKCLNYLNQNAYTATAINSTNFCTSAKDAFVILVENALRVATINTVGDFMLFLGKVLIVCSTGLAGIMLLNYQQDYTVWVLPLIIVCLFAFLVAHCFLSIYEMVVDVLFLCFAIDTKYNDGSPGREFYMDKVLMEFVENSRKAMKEAGKGGVADSRELKPMASGASSA [SLC44A1]” had a melting temperature with HeLa Kyoto [1] (cell cycle stage: G1/S) of 55.7 °C. In addition, the “solubility change mitosis (log2)” value in the series with HeLa Kyoto [2] was -0.147. Further, the thermal stability score with HeLa Kyoto [3] (setting [5]) is -1.35; in the series with HeLa Kyoto [3] (cell cycle stage: mitosis) it was -2.05. For the same sequence, the “solubility in G1/S (log2)” value in the series on HeLa Kyoto [4] was -0.0157.

(Values after the supplement of paper PMC5998384.)
